PMC11989750, “Mating Increases CHST10 Activity in Rat Oviductal Mucosa to Induce the Synthesis of HNK-1 Glycoproteins: Possible Role in Sperm–Oviduct Interactions” (International Journal of Molecular Sciences, 2025)

Assays:
[1] = substrate: [H][C@@]12CCc3cc(O[C@@H]4O[C@H](C(=O)O)[C@@H](O)[C@H](O)[C@H]4O)ccc3[C@@]1([H])CC[C@]1(C)[C@@H](O)CC[C@@]21[H]; assay: malachite green phosphate assay coupled to phosphatase CP3, A620; format: biochemical, Homo sapiens; conditions: acceptor substrate, PAPS as donor, 37 °C, 20 min
[2] = substrate: O=C1OC(c2ccc(O)cc2)(c2ccc(O[C@@H]3O[C@H](C(=O)O)[C@@H](O)[C@H](O)[C@H]3O)cc2)c2ccccc21; assay: as above; format: biochemical, Homo sapiens; conditions: acceptor substrate, PAPS as donor, 37 °C, 20 min

B1: human recombinant CHST10 (Homo sapiens) (protein)
chain: TFKDPDVYSAKQEFLFLTTMPEVRKLPEEKHIPEELKPTGKELPDSQLVQPLVYMERLELIRNVCRDDALKNLSHTPVSKFVLDRIFVCDKHKILFCQTPKVGNTQWKKVLIVLNGAFSSIEEIPENVVHDHEKNGLPRLSSFSDAEIQKRLKTYFKFFIVRDPFERLISAFKDKFVHNPRFEPWYRHEIAPGIIRKYRRNRTETRGIQFEDFVRYLGDPNHRWLDLQFGDHIIHWVTYVELCAPCEIMYSVIGHHETLEDDAPYILKEAGIDHLVSYPTIPPGITVYNRTKVEHYFLGISKRDIRRLYARFEGDFKLFGYQKPDFLLN
notes: commercial recombinant protein (R&D Systems 6140-ST)
Km [1]: 73.9 ± 5.4 µM
Km [2]: 41.6 ± 2.4 µM
